Reference: the nanobody polyreactivity screen of Harvey et al. (2022)

Assay: yeast display, Sf9 membrane polyspecificity reagent, FACS + sequencing; frameworks hold sequencing errors
Method in brief: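 Nanobodies from a synthetic yeast display library (Saccharomyces cerevisiae BJ5465), induced 36–48 hours with galactose, were stained 1 hour at 4 °C with 10% biotinylated, detergent-solubilized Sf9 membrane reagent, enriched on streptavidin microbeads, then FACS-sorted. Anti-HA (expression) and streptavidin (reagent binding) fluorescence set low and high (top ~1%) gates. Polyreactivity labels come from the gate of origin. Genes were colony-PCR amplified, MiSeq 2 × 250 sequenced and filtered by CDR length.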

QVQLVESGGGLVQAGGSLRLSCAASGYIFYYYAMGWYRQAPGKERELVAAITFSGGSTYYADSVKGRFTISRDNAKNNVYLQMNRLKPEDTAGYYCAKVELRDAAELGSDEYDYWGQGTQVTVSS
polyreactivity (PSR sort gate): low polyreactivity

QVQLVESGGGLVQAGGSLRLSCAASGRILGDYAMGWYRQAPGTEREFVAAIDYNGGSTNYADSVMGRFTISRDNAKNTVYFQMNSLKPEDTAVYYCAKTDGFYRGYGYWGQGTQVTVSS
polyreactivity (PSR sort gate): low polyreactivity

QVQLVESGGVLVQAGGSLRLSCAASGIIFFGYAMGWYRQAPGKERELFAAISYSTGGTSTYADSVKGRFTISRDNAKNTVYLQKNSLKPEDTAVYYCAVRRQYRRAYSFSQSRYDYWGQGTQVTVSS
polyreactivity (PSR sort gate): high polyreactivity

QVQLVESGGGLVQAGGSLRLSCAASGSTFTWNGMGWYRQAPGKERELVATISYGGGRTYYADSVKGRFTISRDNAKNTVYLQMNSLKPEDTAVYYCAADFTRYTQVHALRLSEYWGQGTQVTVSS
polyreactivity (PSR sort gate): low polyreactivity

QVQLVESGGGLDQAGGSLRLSWAASGFTFVPYAMGWYRQAPGKERNLVARITGGGGNTYYADSVKGRFTISRDNAKNTVYLQMISLKPEDTAVYYCAADYTNWKTCSNEMYYWGQGTQVTVSS
polyreactivity (PSR sort gate): low polyreactivity

QVQLVESGGGLVQAGGSLRLSCAASGRTFYRYAMGWYRQAPGKEREFVAAISNGGSNTRYADSVKGRFTISRDNAKNTVYLQMNSLKPEDTAVYYCAARAYQHYNWGQGTQVTVSS
polyreactivity (PSR sort gate): high polyreactivity

QVQLVESGGGLVQAGGSLRLSCAASGITFVNYAMGWYRQAPGKERELVAAITSGGNTYYADSVKGRFTISRDNAKNTVYLQMNSLKPEDTAVYYCAAKWFYGKPYRGYYYWGQGTQVTVSS
polyreactivity (PSR sort gate): high polyreactivity

QVQLVESGGGLVQAGGSLRLSCAASGRIFRGYAMGWYRQAPGKERELVARITSGGRTYYADSVKGRFTISRDNAKNTVYLQMNSLKPEDTAVYYCATVGRGYDERHNYWGQGTQVTVSS
polyreactivity (PSR sort gate): high polyreactivity

QVQLVESGGGLVQAGGSLRLSCAASGSTFQSNAMGWYRQAPGTEREMVATITRGGGTSYADSVKGRFTISRDNAKNTVYVQMNSLQPEDTAVYYCNARRQRYYTQGRFYYWGQGTQVTVSS
polyreactivity (PSR sort gate): high polyreactivity

QVQLVESGGGLVQAGGSLRLSCAASGSTFAYNAMGWYRQAPGKERELVAAIRISGGTTYYADSVKGRFTISRDNAKNTVYLQMNSLKREDTAVYYCAAGTAGTTGSPKFSGYGYDYWGQGTQVTVSS
polyreactivity (PSR sort gate): low polyreactivity

QVQLVESGGGLVQAGGSLRLSCAASGSIFAVYAMGWYRQAPGKERELVAVITRSGGSTYYADSVKGRFTISRDNAKNTVYLQMNSLKPEDTAVYYCAARRSYLLRYDYWGQGTQVTVSS
polyreactivity (PSR sort gate): high polyreactivity

HVQLVESGGGLVQAGGSLRLSCAASGFIFVSYAMGWYRQAPGKERELVAAITWSTTSTYYADSVKGRFTISRDNAKNTVYLQMNSLKPEDTAVYYCAKYNFQYKHDYWGQGTQVTVSS
polyreactivity (PSR sort gate): low polyreactivity

QVQLVESGGGLVQAGGSLRLSCAASGSTFGFYAMGWYRQAPGKEREFVAAITWSGGRTNYADSVKGRFTISRDNAKNTVYLQMNSLKPEDTAVYYCAAEGFVTWYRQGQVYYWGQGTQVTVSS
polyreactivity (PSR sort gate): high polyreactivity

QVQLVESGGGLVQAGGTLSLSCAASGFIFYRTARGWSRQAPGKDRELVAGISRVGSTYYADSVKGRFTISRDNAKNTVYLQMNSLKPEDTAVDYCAARSGYFYGYGYWGQGTQVTVSS
polyreactivity (PSR sort gate): high polyreactivity

QVQLVESGGGLVQAGGSLRLICAASGFIMRPYTMGWYRQAPGKERELVAAITSGGRTYYADSVKGRFTISRDNAKNTVYLQMNSLKPEDTAVYYCAALTYYRTVRTFSYPYDYWGQGTQVTVSS
polyreactivity (PSR sort gate): high polyreactivity

QVQLVESGGGLVQAGGSLRLSCAASGRIFYNSVMGWYRQAPGKERELVAAISSSGGSTYYADSVKGRFTISRDNAKNTVYLQMNSLKPEDTAVYYCATTRRVPGEYWGQGTQVTVSS
polyreactivity (PSR sort gate): high polyreactivity

QVQLVESGGGLVQAGGSLRLSCAASGFTFYLYAMGWYRQAPGKERELVAAISSGSTTYYADSVKGRFTISRDNAKNTVYLQMNSLKPEDTAVYYCNAYYVNYVSNYEYWGQGTQVTVSS
polyreactivity (PSR sort gate): high polyreactivity
